B1: 3D8-HuC54 (antibody, human IgG1, kappa, V domains shown)
VH: EVQLVESGGGLVQPGGSLRLSCAASGFTFSSYAMSWVRQAPGKGLEWVSSINSGGSTYYPDSVKGRFTISRENAKNSLYLQMNSLRAGDTAVYYCARVNYYGYGDYAMDYWGQGTLVTVSS
VL: DIQMTQSPSSLSASVGDRVTITCQASQDISNYLTWFQQKPGKSPKTLIHRANRLVTGVPSRFSGSGSGTDFTFTISSLQPEDIATYYCLQYDEFPYTFGGGTKVEIKR
notes: humanized, human IgG1 / kappa
B2: 38F8-Hu27 (antibody, human IgG1, kappa, V domains shown)
VH: EVQLVESGGGLVQPGGSLRLSCAASGFTFSNYAMSWVRQAPGKGLEWVASISSGGPTYYPDSVKGRFTVSRDNSKNTLYLQMNSLRAEDTAVYYCARGYRYDVNWYFDVWGAGTMVTVSS
VL: B1 VL with F71Y, T85I
notes: humanized, human IgG1 / kappa
B3: 38F8-Hu26 (antibody, human IgG1, kappa, V domains shown)
VH: B2 VH
VL: B1 VL with S30N, N31S
notes: humanized, human IgG1 / kappa
B4: 38F8-Hu16 (antibody, human IgG1, kappa, V domains shown)
VH: B2 VH with A23T, P60A, K75R, A112R, M115L
VL: B1 VL with S30N, N31S
notes: humanized, human IgG1 / kappa
B5: 38F8-Hu24 (antibody, human IgG1, kappa, V domains shown)
VH: B2 VH
VL: B1 VL
notes: humanized, human IgG1 / kappa
B6: 38F8-Hu14 (antibody, human IgG1, kappa, V domains shown)
VH: B2 VH with A23T, P60A, K75R, A112R, M115L
VL: B1 VL
notes: humanized, human IgG1 / kappa
B7: 38F8-Hu18 (antibody, human IgG1, kappa, V domains shown)
VH: B2 VH with A23T, P60A, K75R, A112R, M115L
VL: B1 VL with S30N, N31S, F71Y, T85I
notes: humanized, human IgG1 / kappa
B8: 3D8-HuC94 (antibody, human IgG1, kappa, V domains shown)
VH: B1 VH with G42E, G44R, N52S, S53N, E72D, A74S, S77T, G88E
VL: B1 VL
notes: humanized, human IgG1 / kappa
B9: 38F8-Hu28 (antibody, human IgG1, kappa, V domains shown)
VH: B2 VH
VL: B1 VL with S30N, N31S, F71Y, T85I
notes: humanized, human IgG1 / kappa
B10: 38F8-Hu17 (antibody, human IgG1, kappa, V domains shown)
VH: B2 VH with A23T, P60A, K75R, A112R, M115L
VL: B1 VL with F71Y, T85I
notes: humanized, human IgG1 / kappa
B11: 3D8-HuC84 (antibody, human IgG1, kappa, V domains shown)
VH: B1 VH with G42E, G44R, N52S, E72D, A74S, S77T, G88E
VL: B1 VL
notes: humanized, human IgG1 / kappa

Where a chain is given by its changes, count along the chain named.

T1 sequence (Q01973 30-937): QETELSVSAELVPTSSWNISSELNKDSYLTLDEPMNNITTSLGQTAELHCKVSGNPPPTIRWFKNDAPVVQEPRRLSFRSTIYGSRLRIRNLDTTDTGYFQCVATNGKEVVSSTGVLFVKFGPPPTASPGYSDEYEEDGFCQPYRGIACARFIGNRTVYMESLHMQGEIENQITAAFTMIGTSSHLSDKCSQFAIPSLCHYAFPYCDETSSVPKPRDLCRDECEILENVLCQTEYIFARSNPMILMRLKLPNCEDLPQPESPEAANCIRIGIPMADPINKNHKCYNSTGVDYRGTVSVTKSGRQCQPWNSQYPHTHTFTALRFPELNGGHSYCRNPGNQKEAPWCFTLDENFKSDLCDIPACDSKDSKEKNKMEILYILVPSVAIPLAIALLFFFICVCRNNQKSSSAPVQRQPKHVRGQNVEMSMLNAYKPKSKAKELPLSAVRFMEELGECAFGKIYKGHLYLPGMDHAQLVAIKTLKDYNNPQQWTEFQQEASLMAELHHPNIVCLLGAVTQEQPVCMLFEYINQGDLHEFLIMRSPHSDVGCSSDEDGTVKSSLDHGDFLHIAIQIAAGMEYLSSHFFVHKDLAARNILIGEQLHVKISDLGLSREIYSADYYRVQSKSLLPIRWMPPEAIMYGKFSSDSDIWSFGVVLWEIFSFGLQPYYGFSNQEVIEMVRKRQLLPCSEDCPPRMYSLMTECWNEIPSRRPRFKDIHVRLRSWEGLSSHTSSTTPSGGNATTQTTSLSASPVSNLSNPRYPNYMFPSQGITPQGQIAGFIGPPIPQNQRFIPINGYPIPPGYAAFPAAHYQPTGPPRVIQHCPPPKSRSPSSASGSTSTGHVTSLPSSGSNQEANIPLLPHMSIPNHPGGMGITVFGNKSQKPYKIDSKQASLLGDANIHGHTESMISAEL

The first assay concerns the target T1, human ROR1 (full-length, on the cell surface) (human, UniProt Q01973 30-937).
T1 construct: whole, on cells; the tumour cell lines carry their own ROR1; also called Ba/F3-ROR1 cells; Jeko-1
Put plainly: flow cytometry, A549 cells. As to the method: (§1) The affinities of the anti-human ROR1 humanized antibodies to Ba/F3-ROR1, Jeko-1, HT-29 and A549 cells were detected by flow cytometry. The specific experimental steps were as follows: the BaBF3-ROR1, Jeko-1, HT-29 and A549 cells were incubated with the purified humanized antibodies of different concentration gradients on ice for 30 minutes, and the anti-ROR1 antibody UC961 with human IgG1 and the anti-TNP antibody were used as positive and negative controls, respectively.
(In general: A flow cytometer gives signals particle by particle.)
What is called EC50 is the concentration at which the effect is half-maximal. A lower EC50 goes with a more potent agent. B1 had a concentration for a half-maximal effect (EC50) of 0.23 nM.
B2 registered an EC50 of 0.27 nM.
B3: it took 0.29 nM to reach a half-maximal effect (EC50).
For B4, a half-maximal effect (EC50) was put at 0.22 nM.
In the case of B5, the concentration for a half-maximal effect (EC50) is 0.21 nM.
As for B6, the EC50 is 0.34 nM.
On to B7, for which the concentration for a half-maximal effect (EC50) is 0.28 nM.
B8 returned a half-maximal effective concentration (EC50) of 1.38 nM.
With B9, it took 0.34 nM to reach a half-maximal effect (EC50).
In turn, B10 yielded an EC50 of 0.21 nM.
Same read-out and setting: to B11 belongs 0.85 nM.

A further assay deals with T1, human ROR1 (full-length, on the cell …). The assay is described as follows: flow cytometry, HT-29 cells. Here is the method:
as §1
In turn, B1 registered a concentration giving a half-maximal response (EC50) of 0.19 nM.
As for B2, the concentration giving a half-maximal response (EC50) was found to be 0.25 nM.
For the molecule B3, the EC50 is 0.33 nM.
For B4, the EC50 turned out to be 0.31 nM.
On the same count and under the same terms, then B5, with 0.24 nM; and B6, with 0.24 nM; and B7, with 0.35 nM.
For B8, it took 0.74 nM to reach a half-maximal effect (EC50).
Regarding B9, the 50% effective concentration (EC50) came to 0.24 nM.
Molecule B10 showed an EC50 of 0.29 nM.
The molecule B11 yielded an EC50 of 1.3 nM.

A further assay shares this target. The assay is described as follows: flow cytometry, Jeko-1 cells. As to the method: as §1
In turn, B1 had an EC50 of 0.03 nM.
For the molecule B2, a half-maximal effect (EC50) was put at 0.07 nM.
B3: the half-maximal effective concentration (EC50) turned out to be 0.09 nM.
Molecule B4 returned a concentration giving a half-maximal response (EC50) of 0.08 nM.
B5 came in with a concentration giving a half-maximal response (EC50) of 0.05 nM.
The same measure, in the same setting: then B6, with 0.08 nM; and B7, with 0.11 nM; and B8, with 0.06 nM.
B9 had an EC50 of 0.12 nM.
The molecule B10 registered an EC50 of 0.07 nM.
The molecule B11 showed a concentration for a half-maximal effect (EC50) of 0.06 nM.

The next assay shares this target. Put plainly: flow cytometry, Ba/F3-ROR1 cells. As to the method: as §1
For B1, it took 0.23 nM to reach a half-maximal effect (EC50).
For B2, the response was half-maximal at 0.99 nM (EC50).
B3 yielded an EC50 of 0.77 nM.
With B4, the EC50 worked out at 0.94 nM.
In turn, B5 yielded an EC50 of 0.98 nM.
Take B6: a half-maximal effect (EC50) was put at 0.84 nM.
Turning to B7, the EC50 turned out to be 0.82 nM.
In turn, B8 returned a concentration for a half-maximal effect (EC50) of 0.22 nM.
Same read-out and setting: to B9 belongs 1.32 nM; to B10, 1.48 nM; to B11, 0.19 nM.

These data come from US20240018237A1 (SICHUAN KELUN BIOTECH BIOPHARMACEUTICAL, published 2024).
